Source: publication PMC12131814

Legend:
[1] = biological target: superfolder green fluorescent protein (sfGFP); assay: AUC
[2] = biological target: superfolder green fluorescent protein (sfGFP); assay: MST
[3] = biological target: superfolder green fluorescent protein (sfGFP); assay: MST; remark: listed apart in the source
[4] = biological target: superfolder green fluorescent protein (sfGFP); assay: ITC

B1: anti-GFP nanobody (GFP-enhancer) (VHH)
VHH: QVQLVESGGALVQPGGSLRLSCAASGFPVNRYSMRWYRQAPGKEREWVAGMSSAGDRSSYEDSVKGRFTISRDDARNTVYLQMNSLKPEDTAVYYCNVNVGFEYWGQGTQVTVSS
Question: With B1 as the binder, how does the Kd [1] read?
Answer: 1.72 nM

Question: And the stoichiometry N [1]?
Answer: 1

Question: And the Kd [2]?
Answer: 1.53 nM

Question: What about the Kd [3] of the same binder?
Answer: 1.52 nM

Question: And the Kd [4]?
Answer: 1 nM

Question: And the dH [4]?
Answer: -46.5 kJ/mol
